According to US20200206266A1 (JULIUS MAXIMILIANS UNIVERSIT T W RZBURG, published 2020):

T1: FLT3 with internal tandem duplication (FLT3-ITD) (human, UniProt P36888 27-543)
T1 sequence (looked up): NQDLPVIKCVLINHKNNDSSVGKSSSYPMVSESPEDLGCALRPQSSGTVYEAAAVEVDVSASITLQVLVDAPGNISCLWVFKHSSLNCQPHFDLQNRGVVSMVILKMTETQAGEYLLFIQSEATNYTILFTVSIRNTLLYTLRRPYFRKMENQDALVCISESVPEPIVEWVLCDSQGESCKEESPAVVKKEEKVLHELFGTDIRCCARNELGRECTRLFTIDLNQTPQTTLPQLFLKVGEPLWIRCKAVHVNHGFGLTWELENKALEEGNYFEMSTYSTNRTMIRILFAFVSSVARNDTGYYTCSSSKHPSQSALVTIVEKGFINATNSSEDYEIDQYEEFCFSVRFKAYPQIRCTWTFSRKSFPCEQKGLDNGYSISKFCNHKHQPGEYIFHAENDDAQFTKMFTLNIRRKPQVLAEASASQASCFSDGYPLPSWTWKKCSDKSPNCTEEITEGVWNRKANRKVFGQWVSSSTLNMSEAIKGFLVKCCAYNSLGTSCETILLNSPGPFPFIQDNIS

T2: FMS-like tyrosine kinase 3 (FLT3), wild-type (human, UniProt P36888 27-993)
T2 construct: whole, on cells; also called CD135; wt FLT3
T2 sequence (looked up): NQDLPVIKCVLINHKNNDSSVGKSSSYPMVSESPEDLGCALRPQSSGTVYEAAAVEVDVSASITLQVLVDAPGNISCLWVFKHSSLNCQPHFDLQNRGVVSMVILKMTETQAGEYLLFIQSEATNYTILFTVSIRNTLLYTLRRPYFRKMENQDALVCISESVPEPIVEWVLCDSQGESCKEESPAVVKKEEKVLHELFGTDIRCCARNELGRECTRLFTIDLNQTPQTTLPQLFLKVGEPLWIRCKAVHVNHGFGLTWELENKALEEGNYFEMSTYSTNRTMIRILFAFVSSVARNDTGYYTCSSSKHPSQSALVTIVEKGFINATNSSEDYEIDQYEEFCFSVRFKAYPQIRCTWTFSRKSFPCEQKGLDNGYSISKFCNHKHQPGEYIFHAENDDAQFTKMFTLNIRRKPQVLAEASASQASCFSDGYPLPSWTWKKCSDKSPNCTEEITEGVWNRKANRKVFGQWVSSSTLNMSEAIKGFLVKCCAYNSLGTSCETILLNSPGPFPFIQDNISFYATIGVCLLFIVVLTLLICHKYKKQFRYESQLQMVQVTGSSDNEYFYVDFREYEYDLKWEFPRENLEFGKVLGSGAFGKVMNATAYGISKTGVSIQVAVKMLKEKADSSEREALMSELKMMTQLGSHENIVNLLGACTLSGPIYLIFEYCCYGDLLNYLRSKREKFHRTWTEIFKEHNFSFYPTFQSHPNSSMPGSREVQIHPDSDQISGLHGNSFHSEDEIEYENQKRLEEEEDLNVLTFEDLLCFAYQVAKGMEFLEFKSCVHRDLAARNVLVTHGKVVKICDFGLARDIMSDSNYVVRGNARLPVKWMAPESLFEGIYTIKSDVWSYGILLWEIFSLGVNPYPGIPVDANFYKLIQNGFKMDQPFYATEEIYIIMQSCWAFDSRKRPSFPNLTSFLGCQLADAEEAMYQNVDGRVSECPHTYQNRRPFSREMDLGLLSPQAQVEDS


Tests used:
[1] = biological target: T1, FLT3 with internal tandem duplication …; test: cell-based or functional assay
[2] = biological target: T2, FMS-like tyrosine kinase 3 (FLT3), …; test: flow cytometry, staining of THP-1 cells (FLT3 wild-type)
Text: (a) Flow cytometric analysis of FLT3 expression on AML cell lines (MOLM-13, THP-1, MV4;11) and primary AML blasts (pt #1 and #2).

IFN-γ production, MOLM-13^creno against MOLM-13^native [1] [fold] | IFN-γ production, MOLM-13^mido against MOLM-13^native [1] [fold] | IFN-γ production, MOLM-13^quiza against MOLM-13^native [1] [fold] | IL-2 production, MOLM-13^creno against MOLM-13^native [1] [fold] | IL-2 production, MOLM-13^mido against MOLM-13^native [1] [fold] | IL-2 production, MOLM-13^quiza against MOLM-13^native [1] [fold] | increase in cytolytic activity, MOLM-13^creno against MOLM-13^native, 2.5:1 E:T [1] [fold] | increase in cytolytic activity, MOLM-13^creno against MOLM-13^native, 5:1 E:T [1] [fold] | increase in cytolytic activity, MOLM-13^mido against MOLM-13^native, 2.5:1 E:T [1] [fold] | increase in cytolytic activity, MOLM-13^mido against MOLM-13^native, 5:1 E:T [1] [fold] | increase in cytolytic activity, MOLM-13^quiza against MOLM-13^native, 2.5:1 E:T [1] [fold] | increase in cytolytic activity, MOLM-13^quiza against MOLM-13^native, 5:1 E:T [1] [fold] | proliferation index, MOLM-13^mido against MOLM-13^native [1] [fold] | Binder | other results
– | – | – | – | – | – | – | – | – | – | – | – | – | anti-FLT3 BV10 mAb (Biolegend) (antibody, V domains shown) VH: QVQLKQSGPGLVQPSQSLSITCTVSGFSLTNYGLHWVRQSPGKGLEWLGVIWSGGSTDYNAAFISRLSISKDNSKSQVFFKMNSLQADDTAIYYCARKGGIYYANHYYAMDYWGQGTSVTVSS VL: DIVMTQSPSSLSVSAGEKVTMSCKSSQSLLNSGNQKNYMAWYQQKPGQPPKLLIYGASTRESGVPDRFTGSGSGTDFTLTISSVQAEDLAVYYCQNDHSYPLTFGAGTKLELKR | ADCC, percentage of MV4;11 cells eliminated, crenolanib pre-treatment against none [1]: 3 fold; ADCC, percentage of MV4;11 cells eliminated, midostaurin pre-treatment against none [1]: 2 fold; ADCC, percentage of MV4;11 cells eliminated, quizartinib pre-treatment against none [1]: 3.5 fold
– | – | – | – | – | – | – | – | – | – | – | – | – | mouse-anti-human-FLT3 mAb (clone 4G8, BD Pharmagin, BD Biosciences) (antibody, V domains shown, Bought, fluorochrome-conjugated mouse antibody, used with a mouse IgG1 isotype control; also called anti-FLT3 mAb (4G8); anti-FLT3 4G8 mAb) VH: QVQLQQPGAELVKPGASLKLSCKSSGYTFTSYWMHWVRQRPGHGLEWIGEIDPSDSYKDYNQKFKDKATLTVDRSSNTAYMHLSSLTSDDSAVYYCARAITTTPFDFWGQGTTLTVSS VL: DIVLTQSPATLSVTPGDSVSLSCRASQSISNNLHWYQQKSHESPRLLIKYASQSISGIPSRFSGSGSGTDFTLSINSVETEDFGVYFCQQSNTWPYTFGGGTKLEIKR | binding result [2]: binds
1.4 | 2.3 | 1.4 | 3.9 | 12.4 | 1.9 | 2.5 | 2 | 1.5 | 1.4 | 17.7 | 1.6 | 1.8 | 4G8 FLT3 CAR (other) QVQLQQPGAELVKPGASLKLSCKSSGYTFTSYWMHWVRQRPGHGLEWIGEIDPSDSYKDYNQKFKDKATLTVDRSSNTAYMHLSSLTSDDSAVYYCARAITTTPFDFWGQGTTLTVSSGGGGSGGGGSGGGGSDIVLTQSPATLSVTPGDSVSLSCRASQSISNNLHWYQQKSHESPRLLIKYASQSISGIPSRFSGSGSGTDFTLSINSVETEDFGVYFCQQSNTWPYTFGGGTKLEIKRESKYGPPCPPCPMFWVLVVVGGVLACYSLLVTVAFIIFWVRSKRSRGGHSDYMNMTPRRPGPTRKHYQPYAPPRDFAAYRSRVKFSRSADAPAYQQGQNQLYNELNLGRREEYDVLDKRRGRDPEMGGKPRRKNPQEGLYNELQKDKMAEAYSEIGMKGERRRGKGHDGLYQGLSTATKDTYDALHMQALPPR | % proliferation, CAR-T vs MOLM-13^native [1]: 31.3%
1.6 | 2.1 | 1.2 | 2 | 6.6 | 1.9 | 1.8 | 1.6 | 1.6 | 1.3 | 3.8 | 1.6 | 1.8 | BV10 FLT3 CAR (other) QVQLKQSGPGLVQPSQSLSITCTVSGFSLTNYGLHWVRQSPGKGLEWLGVIWSGGSTDYNAAFISRLSISKDNSKSQVFFKMNSLQADDTAIYYCARKGGIYYANHYYAMDYWGQGTSVTVSSGGGGSGGGGSGGGGSDIVMTQSPSSLSVSAGEKVTMSCKSSQSLLNSGNQKNYMAWYQQKPGQPPKLLIYGASTRESGVPDRFTGSGSGTDFTLTISSVQAEDLAVYYCQNDHSYPLTFGAGTKLELKRESKYGPPCPPCPMFWVLVVVGGVLACYSLLVTVAFIIFWVRSKRSRGGHSDYMNMTPRRPGPTRKHYQPYAPPRDFAAYRSRVKFSRSADAPAYQQGQNQLYNELNLGRREEYDVLDKRRGRDPEMGGKPRRKNPQEGLYNELQKDKMAEAYSEIGMKGERRRGKGHDGLYQGLSTATKDTYDALHMQALPPR | IFN-γ production, CAR-T vs MOLM-13^native [1]: 1480 pg/mL; proliferation index, MOLM-13^creno against MOLM-13^native [1]: 1.3 fold; proliferation index, MOLM-13^quiza against MOLM-13^native [1]: 1.2 fold
